Source: patent publication US8058228B2, “Leptin peptide antagonists” (Boston Biomedical Research Institute, priority 2004, dated 2011)

Molecular target: T1, OB-R (Homo sapiens, UniProt P48357)
T1 construct: After confirming via Western that the primary EEC and ESC and endometrial cell lines utilized herein had OB-R; endogenous in cells; host or cells: primary human EEC and ESC; Ishikawa (ECACC 9832301) and HES cell lines
T1 sequence (P48357 22-1165): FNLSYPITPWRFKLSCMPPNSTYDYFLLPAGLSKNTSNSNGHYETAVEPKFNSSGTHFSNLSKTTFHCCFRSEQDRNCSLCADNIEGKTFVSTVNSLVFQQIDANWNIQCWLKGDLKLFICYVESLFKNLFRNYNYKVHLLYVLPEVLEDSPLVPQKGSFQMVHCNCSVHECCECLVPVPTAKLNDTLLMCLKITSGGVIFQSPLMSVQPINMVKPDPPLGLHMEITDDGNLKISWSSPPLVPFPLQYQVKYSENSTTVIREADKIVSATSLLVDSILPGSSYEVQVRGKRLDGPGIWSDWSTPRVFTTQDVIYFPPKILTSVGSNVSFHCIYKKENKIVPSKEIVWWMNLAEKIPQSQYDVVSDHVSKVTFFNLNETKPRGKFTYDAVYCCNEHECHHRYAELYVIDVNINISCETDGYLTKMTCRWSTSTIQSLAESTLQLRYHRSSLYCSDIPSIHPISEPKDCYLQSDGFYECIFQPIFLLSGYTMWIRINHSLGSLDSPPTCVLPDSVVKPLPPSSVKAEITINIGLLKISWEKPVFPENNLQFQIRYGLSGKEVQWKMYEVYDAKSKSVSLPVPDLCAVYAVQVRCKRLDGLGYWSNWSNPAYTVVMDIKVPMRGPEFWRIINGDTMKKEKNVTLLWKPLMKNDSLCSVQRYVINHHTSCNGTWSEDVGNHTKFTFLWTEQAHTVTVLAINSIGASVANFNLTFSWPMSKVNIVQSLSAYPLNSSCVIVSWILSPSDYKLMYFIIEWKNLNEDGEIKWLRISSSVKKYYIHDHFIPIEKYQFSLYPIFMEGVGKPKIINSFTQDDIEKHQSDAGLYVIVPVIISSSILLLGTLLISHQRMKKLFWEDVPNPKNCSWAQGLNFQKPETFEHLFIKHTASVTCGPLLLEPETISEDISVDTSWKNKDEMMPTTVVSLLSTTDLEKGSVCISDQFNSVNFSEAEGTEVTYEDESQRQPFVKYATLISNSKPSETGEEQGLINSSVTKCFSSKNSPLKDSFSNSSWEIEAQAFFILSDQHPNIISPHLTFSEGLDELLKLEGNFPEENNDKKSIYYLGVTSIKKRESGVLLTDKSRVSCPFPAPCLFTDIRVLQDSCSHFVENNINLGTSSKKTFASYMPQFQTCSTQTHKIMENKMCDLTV
Test: LIF levels in conditioned medium of human endometrial cells (ELISA)
Format: cell-based
Conditions: for effect on leptin-induced LIF levels in conditioned medium: leptin 3 nM plus inhibitor or control
Experimental: Primary human endometrial cells (ESC and EEC) were cultured for 5-9 days in DMEM-F12 medium containing 5% fetal bovine serum (FBS), 5 μg/ml insulin, 1% amphopthericin B, 100 μg/ml streptomycin and 100 U/ml penicillin until they were 80% confluent. Two types of endometrial epithelial cell lines, HES (originally derived from a benign proliferative endometrium) and Ishikawa (human endometrial epithelial adenocarcinoma, ECACC 9832301, Wiltshire, England) were cultured under the same conditions described above. The cells were washed twice with 100 mM phosphate saline buffer (PBS), pH 7.2 and cultured for additional 2 days in the same medium but without FBS (basal medium). Cells were washed as described before and cultured in basal medium containing leptin (0, 3, 10 or 62 nM) or IL-1β (0.6, 3 and 10 nM).
The anti-OB-R antibody (10 and 20 μg/ml) and LPA-2, a specific inhibitor of OB-R (3, 120, 300 nM or 30 μM) were used to assess whether leptin-induced effects were regulated primarily by the OB-R. Non-specific species-matched IgGs to the OB-R antibody and a scrambled version of LPA-2 (LPA-2Sc) served as negative controls (Gonzalez and Leavis, Endocrine 21: 185-195 (2003)). Inhibitors of IL-1R were used (monoclonal antibody anti-IL-1R tl and IL-1Ra) to assess whether leptin activated IL-1 induced signaling pathways or just activated similar components responsible for LIF/LIF-R expression. Treatment with the cytokine, inhibitor or the two combined was implemented for 5, 15, 30 and 60 min, and 24 and 48 h. The cells were prepared for Western blot analysis. The conditioned media was collected, lyophilized and stored at −80° C. until analysis for LIF, IL-1β and IL-1Ra by ELISA could be performed. Duplicate wells were run for each treatment and the experiments repeated at least three times with different cell preparations.
Conditioned media from cells cultured under the experimental conditions described above were used to quantify the secretion of LIF, IL-1β and IL-1Ra by ELISA (Quantikine®, R&D Systems). The experiments were replicated three times and standards, controls, and samples were assayed in duplicate. Cytokine concentrations as determined by ELISA were within the range of the standard curve and were expressed in pg/ml/mg protein. The intra- and interassay coefficients of variation were between 5-8% and 8.5-10%, respectively. The lowest detectable concentration of each cytokine by ELISA was LIF (9 pg/ml), IL-1 (0.11 pg/ml) and IL-1Ra (15.6 pg/ml). These concentrations are similar to those reported by the manufacturer. LIF-ELISA is reported by the manufacturer to have a sensitivity of less than 8 pg/ml for both natural and recombinant human LIF and 100% specificity (no significant cross-reactivity or interference with a diversity of human and mouse cytokines and growth factors was observed). The performance characteristics for human IL-1β and IL-1Ra ELISAs reported are: 100% specificity, sensitivity 0.1 pg/ml and 14 pg/ml, respectively.

Substance	effect on leptin-induced LIF levels in conditioned medium (Ishikawa cells)	LIF levels after leptin (HES cells)	LIF levels in conditioned medium after leptin (Ishikawa cells, leptin 3 nM)	LIF levels after leptin (primary EEC, 24 h, dose-dependent)
SRNVIQISNDLENLRDLLHVLAFSKS [LPA-2, 26 amino acid peptide, residues 70-95 of helix III of the human leptin molecule; leptin peptide antagonist]	reduced LIF levels			
leptin: human recombinant leptin (R&D Systems), OB-R ligand used as stimulus		No response	increased the levels of LIF	increased level of LIF
VAEVLNRSDLIQRISFSLDLNNSKLH [LPA-2Sc, scrambled version of LPA-2, negative control, reference compound]	not different			
